Earlier results as cited in PMC9303997.

Assays:
[1] = target: spastin MIT (Homo sapiens) (UniProt Q9UBP0)
VPS4B MIT (Homo sapiens) = VPS4B MIT (Homo sapiens) (UniProt O75351)
VPS4B MIT (Homo sapiens), sequence (O75351 1-85): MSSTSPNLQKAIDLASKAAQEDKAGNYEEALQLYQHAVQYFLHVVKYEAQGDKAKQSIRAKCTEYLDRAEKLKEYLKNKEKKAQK

spastin MIT (Homo sapiens), sequence (Q9UBP0 117-198): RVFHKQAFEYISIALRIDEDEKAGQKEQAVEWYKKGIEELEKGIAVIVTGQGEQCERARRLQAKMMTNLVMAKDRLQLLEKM

Which Kd [1] does the source give for IST1 MIM (from UniProt P53990) here?
The Kd was 0.5 nM.

What about the Kd (VPS4B MIT (Homo sapiens)) of the same substance?
The Kd was 12 nM.
